Source: patent US20210246166A1 (Bayer, published 2021)
Numbered stars: 1 amine (or outer) side, 2 acyl side, 3 side chain; on linkers, the order of the positions; unused ones are H or OH. Bridge positions count the residues as written; N and C are the ends. Square brackets hold non-standard residues; d marks the D form. Ends that are not written are not given here. * marks the point of attachment. Freidinger's Lactam = (2S)-2-[(3R)-3-amino-2-oxopyrrolidin-1-yl]-4-methylpentanoic acid (Freidinger's lactam), CC(C)C[C@@H](C(=O)[*:2])N1CC[C@@H](N[*:1])C1=O; X10 = (2R)‑2‑amino‑3‑(trifluoromethylsulfanyl)propanoic acid, O=C([C@H](CSC(F)(F)F)N[*:1])[*:2]; X15 = (3S)‑2‑azaspiro(4.4)nonane‑3‑carboxylic acid, O=C([C@@H]1CC2(CCCC2)CN1[*:1])[*:2]; (R)‑Pyrrolidine‑3‑acetic acid = O=C(C[C@H]1CCN([*:1])C1)[*:2]; Ida = iminodiacetic acid, O=C(CN(CC(=O)[*:3])[*:1])[*:2]; X5 = Tetrahydropyranyl‑4‑acetic acid, O=C(CC1CCOCC1)*; Pro(3S,4R-methano) = O=C(O)[C@H]1NC[C@@H]2C[C@@H]21; Oic = O=C(O)[C@@H]1C[C@@H]2CCCC[C@@H]2N1; βPro(3R) = O=C([C@@H]1CCN([*:1])C1)[*:2]; tBuAla = CC(C)(C)C[C@H](N)C(=O)O; Pen = CC(C)(S)[C@H](N)C(=O)O; NMeC = CN[C@@H](CS)C(=O)O; NPhGly = O=C(O)CNc1ccccc1; Orn = NCCC[C@H](N)C(=O)O; Abu = CC[C@H](N)C(=O)O; βAla = NCCC(=O)O; Sar = CNCC(=O)O

T1: recombinant rat MASP1 active protease (amino acids 302-704, C-terminal His Tag) (rat, UniProt Q8CHN8 302-704)
T1 sequence: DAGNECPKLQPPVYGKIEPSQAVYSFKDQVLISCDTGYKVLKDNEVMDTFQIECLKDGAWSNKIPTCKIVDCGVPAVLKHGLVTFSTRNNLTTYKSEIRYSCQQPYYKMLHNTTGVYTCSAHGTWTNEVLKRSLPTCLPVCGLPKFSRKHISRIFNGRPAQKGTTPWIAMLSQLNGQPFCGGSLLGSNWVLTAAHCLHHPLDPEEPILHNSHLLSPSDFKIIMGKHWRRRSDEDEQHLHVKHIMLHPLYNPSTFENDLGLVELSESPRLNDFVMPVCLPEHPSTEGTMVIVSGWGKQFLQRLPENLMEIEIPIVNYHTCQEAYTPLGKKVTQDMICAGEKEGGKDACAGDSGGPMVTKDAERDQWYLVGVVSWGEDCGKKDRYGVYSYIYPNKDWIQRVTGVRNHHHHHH

T2: recombinant human MASP1 active protease (amino acids 297-699, C-terminal His Tag) (human, UniProt P48740 297-699)
T2 sequence: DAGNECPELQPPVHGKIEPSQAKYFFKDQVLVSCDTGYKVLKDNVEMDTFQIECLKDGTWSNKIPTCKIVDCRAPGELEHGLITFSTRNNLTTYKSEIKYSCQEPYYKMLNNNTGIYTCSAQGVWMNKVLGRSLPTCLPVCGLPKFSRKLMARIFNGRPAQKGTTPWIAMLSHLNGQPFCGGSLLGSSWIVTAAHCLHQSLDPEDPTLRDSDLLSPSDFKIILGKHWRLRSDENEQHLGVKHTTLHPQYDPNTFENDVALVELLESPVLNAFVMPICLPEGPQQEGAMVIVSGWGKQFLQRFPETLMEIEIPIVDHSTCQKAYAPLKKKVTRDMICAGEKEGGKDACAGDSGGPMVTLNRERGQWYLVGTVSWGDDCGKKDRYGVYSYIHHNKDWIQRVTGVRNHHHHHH


Assays:
Assay in all cases: cell-based or functional assay
[1] = biological target: recombinant rat MASP2 active protease (amino acids 296-685, C-terminal His Tag) (rat, UniProt Q9JJS8 296-685)
recombinant rat MASP2 active protease (amino acids 296-685, C-terminal His Tag), sequence (Q9JJS8 other isoform, or with tags, fused parts or gaps limits assumed): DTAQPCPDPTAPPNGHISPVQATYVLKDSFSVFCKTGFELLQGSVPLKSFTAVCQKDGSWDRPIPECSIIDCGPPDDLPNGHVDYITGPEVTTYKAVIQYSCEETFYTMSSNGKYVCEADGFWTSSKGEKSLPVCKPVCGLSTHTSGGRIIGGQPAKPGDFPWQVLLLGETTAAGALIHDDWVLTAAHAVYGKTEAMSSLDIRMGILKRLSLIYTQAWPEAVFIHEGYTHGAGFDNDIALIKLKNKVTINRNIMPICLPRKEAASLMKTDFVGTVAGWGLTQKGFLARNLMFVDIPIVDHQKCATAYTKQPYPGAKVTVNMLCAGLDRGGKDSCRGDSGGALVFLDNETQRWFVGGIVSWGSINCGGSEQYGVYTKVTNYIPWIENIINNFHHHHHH

[2] = biological target: T1, recombinant rat MASP1 active protease …
[3] = biological target: T2, recombinant human MASP1 active protease …
[4] = biological target: recombinant human MASP2 active protease (amino acids 297-686, C-terminal His Tag) (human, UniProt O00187 297-686)
recombinant human MASP2 active protease (amino acids 297-686, C-terminal His Tag), sequence (O00187 other isoform, or with tags, fused parts or gaps limits assumed): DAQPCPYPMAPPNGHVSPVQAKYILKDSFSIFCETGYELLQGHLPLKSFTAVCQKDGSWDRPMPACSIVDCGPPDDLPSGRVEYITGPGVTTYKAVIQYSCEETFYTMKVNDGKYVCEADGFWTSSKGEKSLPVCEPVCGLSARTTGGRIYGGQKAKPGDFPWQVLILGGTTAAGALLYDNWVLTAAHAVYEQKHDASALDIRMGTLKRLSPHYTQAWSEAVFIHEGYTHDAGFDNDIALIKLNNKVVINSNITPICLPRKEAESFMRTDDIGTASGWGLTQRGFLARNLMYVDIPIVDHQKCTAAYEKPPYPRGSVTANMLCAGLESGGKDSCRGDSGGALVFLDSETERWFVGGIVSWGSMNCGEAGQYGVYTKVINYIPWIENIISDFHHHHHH

Row | rat MASP2 IC50 [1] | rat MASP1 IC50 [2] | human MASP1 IC50 [3] | human MASP2 IC50 [4] | Binder
1 | 8.2 nM | 420 nM |  |  | [dP]ICSRSLP[Oic]I[Pen]IP[Ida]-OH (disulfide 3-11; also: HCl salt) [Example 528: pIC+SRSLP-(Oic)-I-(Pen)+IP-(Ida)-OH (HCl salt)]
2 | 18.4 nM | 23.3 nM |  |  | [Sar]ICSRSLP[Oic]I[Pen]IP[(R)‑Pyrrolidine‑3‑acetic acid]-OH (disulfide 3-11; N-terminus assumed; SMILES CC[C@H](C)[C@H](NC(=O)CNC)C(=O)N[C@H]1CSSC(C)(C)[C@@H](C(=O)N[C@H](C(=O)N2CCC[C@H]2C(=O)N2CC[C@H](CC(=O)O)C2)[C@@H](C)CC)NC(=O)[C@H]([C@@H](C)CC)NC(=O)[C@@H]2C[C@@H]3CCCC[C@@H]3N2C(=O)[C@@H]2CCCN2C(=O)[C@H](CC(C)C)NC(=O)[C@H](CO)NC(=O)[C@H](CCCNC(=N)N)NC(=O)[C@H](CO)NC1=O) [Example 530: ((N-Me)G)-IC+SRSLP-(Oic)-I-(Pen)+IP-((R)-Pyrrolidine-3-acetic acid)-OH]
3 | 100 nM | 730 nM |  |  | [Orn]ICSRS[X10]PPI[Pen]IPD-OH (disulfide 3-11; N-terminus assumed; SMILES CC[C@H](C)[C@H](NC(=O)[C@@H](N)CCCN)C(=O)N[C@H]1CSSC(C)(C)[C@@H](C(=O)N[C@H](C(=O)N2CCC[C@H]2C(=O)N[C@@H](CC(=O)O)C(=O)O)[C@@H](C)CC)NC(=O)[C@H]([C@@H](C)CC)NC(=O)[C@@H]2CCCN2C(=O)[C@@H]2CCCN2C(=O)[C@H](CSC(F)(F)F)NC(=O)[C@H](CO)NC(=O)[C@H](CCCNC(=N)N)NC(=O)[C@H](CO)NC1=O) [Example 529: (Orn)-IC+SRS-((2R)-2-amino-3-(trifluoromethylsulfanyl)propanoic acid)-PPI-(Pen)+IPD-OH]
4 | 42 nM | 240 nM |  |  | [Sar]ICSRSLP[Oic]I[Pen]IP[Freidinger's Lactam]-OH (disulfide 3-11; N-terminus assumed; SMILES CC[C@H](C)[C@H](NC(=O)CNC)C(=O)N[C@H]1CSSC(C)(C)[C@@H](C(=O)N[C@H](C(=O)N2CCC[C@H]2C(=O)N[C@@H]2CCN([C@@H](CC(C)C)C(=O)O)C2=O)[C@@H](C)CC)NC(=O)[C@H]([C@@H](C)CC)NC(=O)[C@@H]2C[C@@H]3CCCC[C@@H]3N2C(=O)[C@@H]2CCCN2C(=O)[C@H](CC(C)C)NC(=O)[C@H](CO)NC(=O)[C@H](CCCNC(=N)N)NC(=O)[C@H](CO)NC1=O) [Example 527: ((N-Me)G)-IC+SRSLP-(Oic)-I-(Pen)+IP-(Freidinger's Lactam)-OH]
5 |  |  | 21 nM | 250 nM | [Sar]ICSRSLPPICI[Abu]D-OH (disulfide 3-11; N-terminus assumed; SMILES CC[C@H](NC(=O)[C@@H](NC(=O)[C@@H]1CSSC[C@H](NC(=O)[C@@H](NC(=O)CNC)[C@@H](C)CC)C(=O)N[C@@H](CO)C(=O)N[C@@H](CCCNC(=N)N)C(=O)N[C@@H](CO)C(=O)N[C@@H](CC(C)C)C(=O)N2CCC[C@H]2C(=O)N2CCC[C@H]2C(=O)N[C@@H]([C@@H](C)CC)C(=O)N1)[C@@H](C)CC)C(=O)N[C@@H](CC(=O)O)C(=O)O) [Example 313: ((N-Me)G)-IC+SRSLPPIC+I-(Abu)-D-OH]
6 | 17.6 nM | 24.2 nM |  |  | [Sar]ICSRSLP[Oic]I[Pen]IP[βPro(3R)]-OH (disulfide 3-11; N-terminus assumed; SMILES CC[C@H](C)[C@H](NC(=O)CNC)C(=O)N[C@H]1CSSC(C)(C)[C@@H](C(=O)N[C@H](C(=O)N2CCC[C@H]2C(=O)N2CC[C@@H](C(=O)O)C2)[C@@H](C)CC)NC(=O)[C@H]([C@@H](C)CC)NC(=O)[C@@H]2C[C@@H]3CCCC[C@@H]3N2C(=O)[C@@H]2CCCN2C(=O)[C@H](CC(C)C)NC(=O)[C@H](CO)NC(=O)[C@H](CCCNC(=N)N)NC(=O)[C@H](CO)NC1=O) [Example 532: ((N-Me)G)-IC+SRSLP-(Oic)-I-(Pen)+IP-((R)-Pyrrolidine-3-carboxylic acid)-OH]

More lines, now with the values behind:

Row | Binder | rat MASP2 IC50 [1] | rat MASP1 IC50 [2] | human MASP1 IC50 [3] | human MASP2 IC50 [4]
7 | [βAla]ICSRSLPPICIPD-OH (disulfide 3-11; N-terminus assumed; SMILES CC[C@H](C)[C@H](NC(=O)CCN)C(=O)N[C@H]1CSSC[C@@H](C(=O)N[C@H](C(=O)N2CCC[C@H]2C(=O)N[C@@H](CC(=O)O)C(=O)O)[C@@H](C)CC)NC(=O)[C@H]([C@@H](C)CC)NC(=O)[C@@H]2CCCN2C(=O)[C@@H]2CCCN2C(=O)[C@H](CC(C)C)NC(=O)[C@H](CO)NC(=O)[C@H](CCCNC(=N)N)NC(=O)[C@H](CO)NC1=O) [Example 306: (beta-A)-IC+SRSLPPIC+IPD-OH] |  |  | 20 nM | 450 nM
8 | [Sar]I[Pen]SRS[tBuAla]PPICIP-NH2 (disulfide 3-11; N-terminus assumed; SMILES CC[C@H](C)[C@H](NC(=O)CNC)C(=O)N[C@@H]1C(=O)N[C@@H](CO)C(=O)N[C@@H](CCCNC(=N)N)C(=O)N[C@@H](CO)C(=O)N[C@@H](CC(C)(C)C)C(=O)N2CCC[C@H]2C(=O)N2CCC[C@H]2C(=O)N[C@@H]([C@@H](C)CC)C(=O)N[C@H](C(=O)N[C@H](C(=O)N2CCC[C@H]2C(N)=O)[C@@H](C)CC)CSSC1(C)C) [Example 310: ((N-Me)G)-I-(Pen)+SRS-((tBu)A)-PPI-C+IP-NH2] |  |  | 20 nM | 3000 nM
9 | [Sar]ICSRSLPPICIP[dD]-OH (disulfide 3-11; N-terminus assumed; SMILES CC[C@H](C)[C@H](NC(=O)CNC)C(=O)N[C@H]1CSSC[C@@H](C(=O)N[C@H](C(=O)N2CCC[C@H]2C(=O)N[C@H](CC(=O)O)C(=O)O)[C@@H](C)CC)NC(=O)[C@H]([C@@H](C)CC)NC(=O)[C@@H]2CCCN2C(=O)[C@@H]2CCCN2C(=O)[C@H](CC(C)C)NC(=O)[C@H](CO)NC(=O)[C@H](CCCNC(=N)N)NC(=O)[C@H](CO)NC1=O) [Example 312: ((N-Me)G)-IC+SRSLPPIC+IPd-OH] |  |  | 21 nM | 530 nM
10 | X5-ICSRS[tBuAla]PPI[NMeC]I-NH2 (disulfide 2-10; SMILES CC[C@H](C)[C@H](NC(=O)[C@@H]1CSSC[C@H](NC(=O)[C@@H](NC(=O)CC2CCOCC2)[C@@H](C)CC)C(=O)N[C@@H](CO)C(=O)N[C@@H](CCCNC(=N)N)C(=O)N[C@@H](CO)C(=O)N[C@@H](CC(C)(C)C)C(=O)N2CCC[C@H]2C(=O)N2CCC[C@H]2C(=O)N[C@@H]([C@@H](C)CC)C(=O)N1C)C(N)=O) [Example 305: (Tetrahydropyranyl-4-acetic acid)-IC+SRS-((tBu)A)-PPI-((N-Me)C)+I-NH2] |  |  | 19 nM | 9.4 nM
11 | {Tetrahydro‑2H‑pyran‑3‑ylacetic acid}-ICSRSLP[Oic]I[Pen]IP-NH2 (disulfide 2-10) [Example 304: (Tetrahydro-2H-pyran-3-ylacetic acid)-IC+SRSLP-(Oic)-I-(Pen)+IP-NH2] |  |  | 19 nM | 27 nM
12 | [Sar]ICSRS[tBuAla]P[Pro(3S,4R-methano)]I[Pen]IPD-OH (disulfide 3-11; N-terminus assumed; SMILES CC[C@H](C)[C@H](NC(=O)CNC)C(=O)N[C@H]1CSSC(C)(C)[C@@H](C(=O)N[C@H](C(=O)N2CCC[C@H]2C(=O)N[C@@H](CC(=O)O)C(=O)O)[C@@H](C)CC)NC(=O)[C@H]([C@@H](C)CC)NC(=O)[C@@H]2[C@H]3C[C@H]3CN2C(=O)[C@@H]2CCCN2C(=O)[C@H](CC(C)(C)C)NC(=O)[C@H](CO)NC(=O)[C@H](CCCNC(=N)N)NC(=O)[C@H](CO)NC1=O) | 253 nM | 485 nM |  | 
13 | [NPhGly]ICSRS[tBuAla]PPI[Pen]IP-NH2 (disulfide 3-11; N-terminus assumed; SMILES CC[C@H](C)[C@H](NC(=O)CNc1ccccc1)C(=O)N[C@H]1CSSC(C)(C)[C@@H](C(=O)N[C@H](C(=O)N2CCC[C@H]2C(N)=O)[C@@H](C)CC)NC(=O)[C@H]([C@@H](C)CC)NC(=O)[C@@H]2CCCN2C(=O)[C@@H]2CCCN2C(=O)[C@H](CC(C)(C)C)NC(=O)[C@H](CO)NC(=O)[C@H](CCCNC(=N)N)NC(=O)[C@H](CO)NC1=O) [Example 311: ((N-Ph)G)-IC+SRS-((tBu)A)-PPI-(Pen)+IP-NH2] |  |  | 20 nM | 49 nM
14 | [Sar]ICSRS[tBuAla]P[X15]I[Pen]IPD-OH (disulfide 3-11; N-terminus assumed; SMILES CC[C@H](C)[C@H](NC(=O)CNC)C(=O)N[C@H]1CSSC(C)(C)[C@@H](C(=O)N[C@H](C(=O)N2CCC[C@H]2C(=O)N[C@@H](CC(=O)O)C(=O)O)[C@@H](C)CC)NC(=O)[C@H]([C@@H](C)CC)NC(=O)[C@@H]2CC3(CCCC3)CN2C(=O)[C@@H]2CCCN2C(=O)[C@H](CC(C)(C)C)NC(=O)[C@H](CO)NC(=O)[C@H](CCCNC(=N)N)NC(=O)[C@H](CO)NC1=O) | 74.1 nM | 26 nM |  | 
